Measurements taken from article PMC5925814, “Impact of altered phosphorylation on loss of function of juvenile Parkinsonism–associated genetic variants of the E3 ligase parkin” (The Journal of Biological Chemistry, 2018).
Positions count from the first letter of the chain named. Names and notes keep the numbering of the source.

T1: GST-tagged Pediculus humanus PINK1 (residues 128–575) (Pediculus humanus) (UniProt E0W1I1)
T1 sequence: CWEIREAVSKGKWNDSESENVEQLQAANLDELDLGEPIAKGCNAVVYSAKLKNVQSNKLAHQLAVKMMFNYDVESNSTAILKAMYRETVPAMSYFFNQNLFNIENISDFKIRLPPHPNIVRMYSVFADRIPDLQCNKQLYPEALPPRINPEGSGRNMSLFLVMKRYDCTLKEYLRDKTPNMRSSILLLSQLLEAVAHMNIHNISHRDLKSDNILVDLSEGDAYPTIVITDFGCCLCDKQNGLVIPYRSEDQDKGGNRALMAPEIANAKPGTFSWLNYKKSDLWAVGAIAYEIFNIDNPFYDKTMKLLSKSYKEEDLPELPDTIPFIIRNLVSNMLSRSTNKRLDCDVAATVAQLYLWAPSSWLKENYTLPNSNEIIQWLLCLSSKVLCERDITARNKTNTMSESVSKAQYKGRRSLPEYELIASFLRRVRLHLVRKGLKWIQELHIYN

B1: parkin Ubl domain (1–76), wild type (domain or fragment, human, UniProt O60260 1-76, looked up)
chain: MIVFVRFNSSHGFPVEVDSDTSIFQLKEVVAKRQGVPADQLRVIFAGKELRNDWTVQNCDLDQQSIVHIVQRPWRK
notes: parkin, human, ubiquitin-like (Ubl) domain, residues 1-76; 15N-labelled for the NMR titrations; also called WT Ubl domain; source: E. coli BL21(DE3), purified (Ni-NTA, Ulp1 cleavage, Superdex75)
B2: parkin Ser-65–phosphorylated Ubl domain (1–76) (domain or fragment, human, UniProt O60260 1-76, looked up)
chain: B1 chain
modifications: phosphoserine at 65
notes: parkin, human, ubiquitin-like (Ubl) domain, residues 1-76, phosphorylated at Ser-65; 15N-labelled for the NMR titrations; the preparative phosphorylation is not described; also called pUbl; pSer-65 Ubl; source: E. coli BL21(DE3), purified (Ni-NTA, Ulp1 cleavage, Superdex75); phosphorylated at Ser-65
B3: parkin Ubl domain (1–76) P37L (domain or fragment, human, UniProt O60260 1-76, looked up)
chain: B1 chain with P37L
notes: parkin, human, ubiquitin-like (Ubl) domain, residues 1-76, ARJP substitution P37L; 15N-labelled for the NMR titrations; Disease-associated (ARJP) substitution; also called Ubl^P37L; source: E. coli BL21(DE3), purified (Ni-NTA, Ulp1 cleavage, Superdex75)
B4: parkin Ser-65–phosphorylated Ubl domain (1–76) P37L (domain or fragment, human, UniProt O60260 1-76, looked up)
chain: B1 chain with P37L
modifications: phosphoserine at 65
notes: parkin, human, ubiquitin-like (Ubl) domain, residues 1-76, ARJP substitution P37L, phosphorylated at Ser-65; 15N-labelled; used at 75 uM in the NMR titration; also called pUbl^P37L; pP37L; source: E. coli BL21(DE3), purified (Ni-NTA, Ulp1 cleavage, Superdex75); phosphorylated at Ser-65
B5: parkin Ubl domain (1–76) S65E, phosphomimetic (domain or fragment, human, UniProt O60260 1-76, looked up)
chain: B1 chain with S65E
notes: parkin, human, ubiquitin-like (Ubl) domain, residues 1-76, S65E; 15N-labelled for the NMR titrations; also called Ubl^S65E; source: E. coli BL21(DE3), purified (Ni-NTA, Ulp1 cleavage, Superdex75)

Key:
[1] = target: T1, GST-tagged Pediculus humanus PINK1 (residues 128–575) (Pediculus humanus)
[2] = target: T1, GST-tagged Pediculus humanus PINK1 (residues 128–575) (Pediculus humanus); remark: listed apart in the source
[3] = target: T2, C-terminal portion of ataxin-3 (residues 194–361) containing three UIM regions (UniProt P54252 194-361); assay: NMR titration; unlabelled ataxin^194–361 titrated into 15N-labelled Ubl variants, 1H-15N HSQC chemical shift changes, global fit for a single Kd (apparent); 150 uM Ubl domain (75 uM pUbl^P37L); 25 mM HEPES, 100 mM NaCl, 0.5 mM TCEP, pH 7.0, 25 °C; conditions: both partners purified
T2 construct: Unlabelled in the NMR titrations; also called ataxin^194–361; tandem UIM region from ataxin-3; source: E. coli BL21(DE3), purified (Ni-NTA, TEV cleavage, second Ni-NTA)
T2 sequence (P54252 194-361): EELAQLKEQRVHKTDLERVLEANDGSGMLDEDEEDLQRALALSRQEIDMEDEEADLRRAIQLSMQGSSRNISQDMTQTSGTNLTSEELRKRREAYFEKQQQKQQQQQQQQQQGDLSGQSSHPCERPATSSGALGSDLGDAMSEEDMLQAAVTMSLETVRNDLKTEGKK

Row | Molecule | Kd [3] | further results
1 | parkin Ubl domain (1–76) I44A (from UniProt O60260 1-76) (domain or fragment) | – | phosphorylation by PINK1 against the WT Ubl domain (data not shown) [1]: 20 fold
2 | full-length parkin (1–465) G12R (from UniProt O60260 1-465) (enzyme) | – | rate of Ser-65 phosphorylation by PINK1 (time course, pSer-65 antibody Western blot), against WT full-length parkin [2]: 40%
3 | B1 | 187 ± 19 µM | –
4 | B2 | 652 ± 175 µM | –
5 | B3 | 61 ± 2 µM | –
6 | B4 | 231 ± 72 µM | –
7 | B5 | 227 ± 26 µM | –
